Results taken from patent publication US8822171.

Target: recombinant human tau, largest isoform (2N4R)

B1: casein kinase 1 (CK1) (protein)
chain: MELRVGNRYRLGRKIGSGSFGDIYLGTDIAAGEEVAIKLECVKTKHPQLHIESKIYKMMQGGVGIPTIRWCGAEGDYNVMVMELLGPSLEDLFNFCSRKFSLKTVLLLADQMISRIEYIHSKNFIHRDVKPDNFLMGLGKKGNLVYIIDFGLAKKYRDARTHQHIPYRENKNLTGTARYASINTHLGIEQSRRDDLESLGYVLMYFNLGSLPWQGLKAATKRQKYERISEKKMSTPIEVLCKGYPSEFATYLNFCRSLRFDDKPDYSYLRQLFRNLFHRQGFSYDYVFDWNMLKFGASRAADDAERERRDREERLRH
  New sites identified in recombinant tau (phosphorylated residues, numbered on 441-residue human tau): (46/50), 113, 131, 149, 169, 184, 208, (210, 212), 214, 237, 238, 241, 258, 262, 263, 285, 289, 305, 341, 352, 356, 361, 373, 386, (412/413/414/416, 2 sites), 416, 433, 435
  in vitro phosphorylation of recombinant tau, sites identified by LC/MS/MS: CK1 found 28 new sites making a total of 30 sites in all.
